According to paper PMC2115046:
Several values for one entry are separate records, joined by “and”; a condition that tells them apart may be missing. Identical values can stand only once. Like-named read-outs stand apart in the source and are kept apart here.

Experiments:
[1] = biological target: G-actin, rabbit skeletal muscle (rabbit) (UniProt P68135); assay: association kinetics by inactivation of etheno-ATP exchange
[2] = biological target: G-actin, rabbit skeletal muscle (rabbit) (UniProt P68135)
[3] = biological target: G-actin, rabbit skeletal muscle (rabbit) (UniProt P68135); assay: other fluorescence titration
[4] = biological target: G-actin, rabbit skeletal muscle (rabbit) (UniProt P68135); assay: dissociation kinetics by etheno-ATP fluorescence decay

Sequence of 14NT, 14-kD fragment of human plasma gelsolin containing the NH2 terminal (domain or fragment) (P06396 28-782): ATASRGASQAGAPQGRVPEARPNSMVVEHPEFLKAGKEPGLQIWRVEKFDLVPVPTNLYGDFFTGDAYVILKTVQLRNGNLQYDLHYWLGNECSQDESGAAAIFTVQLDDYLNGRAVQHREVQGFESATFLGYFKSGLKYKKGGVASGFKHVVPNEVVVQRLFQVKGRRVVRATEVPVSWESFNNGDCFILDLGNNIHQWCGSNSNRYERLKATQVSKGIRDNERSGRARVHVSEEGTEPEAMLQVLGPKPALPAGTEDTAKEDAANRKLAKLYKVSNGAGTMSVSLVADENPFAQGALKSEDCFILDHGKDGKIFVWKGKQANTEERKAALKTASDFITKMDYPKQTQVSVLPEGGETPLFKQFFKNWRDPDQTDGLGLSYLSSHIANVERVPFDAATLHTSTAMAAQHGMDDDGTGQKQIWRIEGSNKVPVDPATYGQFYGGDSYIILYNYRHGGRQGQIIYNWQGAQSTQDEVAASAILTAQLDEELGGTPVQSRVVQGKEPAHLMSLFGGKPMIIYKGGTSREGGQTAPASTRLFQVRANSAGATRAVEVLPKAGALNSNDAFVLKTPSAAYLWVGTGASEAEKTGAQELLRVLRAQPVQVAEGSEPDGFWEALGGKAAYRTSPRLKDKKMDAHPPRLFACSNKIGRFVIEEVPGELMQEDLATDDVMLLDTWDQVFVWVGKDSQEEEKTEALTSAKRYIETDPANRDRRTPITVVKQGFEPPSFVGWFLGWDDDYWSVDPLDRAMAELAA
Sequence of 41CT, 41-kD COOH-terminal half of human plasma gelsolin (domain or fragment) (P06396 28-782): as above

| Substance | kon [1] | Ka [2] | Kd [2] | half-maximal saturation [3] | koff [3] | stoichiometry N [3] | koff [4] | t1/2 of the complex [4] | Kd [3] |
| --- | --- | --- | --- | --- | --- | --- | --- | --- | --- |
| 14NT, 14-kD fragment of human plasma gelsolin containing the NH2 terminal (domain or fragment) | 299000 M⁻¹ s⁻¹ | 2.2e+11 M⁻¹ | 0.004 to 0.005 nM | 1 nM and 2 nM | 0.0003 s⁻¹ | 1 | 1.35e-06 s⁻¹ | 143 h | – |
| 41CT, 41-kD COOH-terminal half of human plasma gelsolin (domain or fragment) | – | – | – | – | – | 1 | – | – | 25 nM |
